Measured values as given in the nanobody polyreactivity screen of Harvey et al. (2022).

Assay: yeast display, Sf9 membrane polyspecificity reagent, FACS + sequencing; frameworks hold sequencing errors
How it was run: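 Synthetic nanobody libraries on Saccharomyces cerevisiae BJ5465 were galactose-induced for 36–48 hours, stained 1 hour at 4 °C with 10% biotinylated, detergent-solubilized Sf9 membrane reagent and enriched on streptavidin microbeads. FACS then separated cells into low and high (top ~1%) gates by anti-HA (expression) and streptavidin (reagent binding) fluorescence. Genes were colony-PCR amplified, MiSeq 2 × 250 sequenced and CDR-length filtered. A clone's polyreactivity label is that of its gate of origin.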

Row | Sequence | polyreactivity (PSR sort gate)
1 | QVQLVESGGGLVQAGGSLRLSCAASGRTSRFDAMGWDIEAPGKERELVARITTRGGSTYYADSVKGRFTISRDNAKNTVYLQMNSLKPEDTAVYFCNAKVTRGDVGGRFEYWGQGTQVTVSS | high polyreactivity
2 | QVQLVESGGGLVQAGGSLRLSCAASGRTSRFYAMGWYRQAPGKERELVARITTRGGSTYYADSVKGRFTISRDNAKNTVYLQRNSLKPEDTAVYYCNTAFWYSRSMDYWGQGTQVTVSS | high polyreactivity
3 | QVQLVESGGGLVQAGGSLRLSCAASGRTSRIYAMGWYRPAPGKRELVAAISGSGSRTYYADSVKGRFTISRDNAKNTVYIQMNSLKPEDTAVYYCNGRYWYRDHPPEFDYWGQGTQVTVSS | high polyreactivity
4 | QVQLVESGGGLVQAGGSLRLSCAASGRTSSRNAMGWYRQAPGKERELVAAISQSGGSTYYADSVKGRFTISRDNAKNTVYLQMNSLKPEDTAVYYCAKEYKPQSYPTYYNYYYWGQGTQVTVSS | low polyreactivity
5 | QVQLVESGGGLVQAGGSLRLSCAASGRTSSTYDMGWYRQAPGKERELVADITWSGGSTYYADSVKGRFTISRDNAKNTVYLQMNRLKPEDTAVYYCAAPFVKFVGSLVYAGYDSWGQGTQVTVSS | low polyreactivity
6 | QVQLVESGGGLVQAGGSLRLSCAASGRTSSWYVMGWYRQAPGKERELVAAISGSGGSTYYADSVKGRFTISRDNAKNTVYLQMNSLKPEDTAVYYCAADSWSYSGYNYWGQGTQVTVSS | high polyreactivity
7 | QVQLVESGGGLVQAGGSLRLSCAASGRTSTQNAMGWYRQAPGKERELVAAITTGGGSTYYADSVKGRFTISRDNAKNTVYLQMNSLKPEDTAVYYCAARTPQRSEWTKYGYWGQGTQVTVSS | low polyreactivity
8 | QVQLVESGGGLVQAGGSLRLSCAASGRTSVNYAMGWYREAPGKERELVASITYSDGRTYYADSVKGRFTISRDNAKNTVYLQMNSLKPEDTAVYYCAARGYSYRGWRMDYWGQGTQVTVSS | high polyreactivity
9 | QVQLVESGGGLVQAGGSLRLSCAASGRTSVVHAMGWYRQAPGKERELVAAITSGGSTHYADSVKGRFTISRDNAKNTVYLQMNSLKPEDTAVYSCNARDRRRTNLLDYWGQGTQVTVSS | low polyreactivity
10 | QVQLVESGGGLVQAGGSLRLSCAASGRTSWRYAMGWYRQAPGKERELVAANNRGGSTYYADSVKGRFTISRDNAKNTVYLQMNSLKPEDTAVYYCAVDTPLEYYHQQAYVAGEYWGQGTQVTVSS | low polyreactivity
11 | QVQLVESGGGLVQAGGSLRLSCAASGRTSWVNAMGWYRQAPGKERELVAAIVSGGTTKYADSVKGRFTISRDNAKNTVYLQMNSMKPEDTAVYYCAAALGLGGQKTRRYEYWGQGTQVTVSS | high polyreactivity
12 | QVQLVESGGGLVQAGGSLRLSCAASGRTSWYTMGWYRQAPGKERELVAAISGSGGITYYADSVKGRFTISRDNAKNTVYLQMNSLKPEDTAVYYCNALRPRSLTEMYYWGQGTQVTVSP | high polyreactivity
13 | QVQLVESGGGLVQAGGSLRLSCAASGRTSYGYAMGWYRQAPGKERELVAAITSSGGSTYYADSVKGRFTISRDNAKNTVYLEMNSLKPEDTAVYYCAASRVRYSYGYPYYYWGQGTQVTVSS | high polyreactivity
14 | QVQLVESGGGLVQAGGSLRLSCAASGRTSYTNAMGWYRQAPGKERELVAAINYSGGSTYYADSVKGRFTISRDNAKNTVYLQMNSLKPEDIAVYYCAAERYYWYTEMGYWGQGTQGTVSS | high polyreactivity
15 | QVQLVESGGGLVQAGGSLRLSCAASGRTSYYAMGWYRQAPGKERELVAAINSGDSTTYADSVKGRFTISRDNAKNTVYLQMNSLKPEDTAVYYCATALYDWYSLEFDYWGQGTQVTVSS | low polyreactivity
16 | QVQLVESGGGLVQAGGSLRLSCAASGRTTWIYAMGWYRQAPGKERELVAVISKRGGNTYYADSVKGRFTISRDNAKNTVYLQMNSLKPADTAVYYCAAAGVYGSYDYWGQGTQVTVSS | high polyreactivity
17 | QVQLVESGGGLVQAGGSLRLSCAASGRTVSFYDMGWYRQAPGKERELVAAINSGSSTYYADSVKGRCTISRDNANTTVYLQMNSLKPEDTAVYYCADEPYFWWQNEYWGQGTQVTVSS | high polyreactivity
18 | QVQLVESGGGLVQAGGSLRLSCAASGRTYGVYAMGWYRQAPGKERELVATITLSGGRTYYAHSVKGRFTISRDNAKNTVYLEMNSLKPEDSAVYYCNARFSYYYGFRASRLDYWGQGTQVNVSS | high polyreactivity
19 | QVQLVESGGGLVQAGGSLRLSCAASGRTYHGYAMGWYRQAPGKERELVARINWSDGRTYYADSVKGRFTISRDNAKNTVYLQMNSLKPEDTAVYYCAADKTVSYAPAWYYYWGQGTQVNVSS | low polyreactivity
20 | QVQLVESGGGLVQAGGSLRLSCAASGRTYQANTMGWYRQAPVKEREFVAAISTSVGSTYYADSVKGRFTISRDNAKNTVYLQMKSLKPEDTALFYCAKASQSWGRDDYYYWGQGTQVTVSS | low polyreactivity
21 | QVQLVESGGGLVQAGGSLRLSCAASGRTYVDYAMGWYRQAPGKEREFDAAITWSGGSTYYADSVKGRFTISRDYAKNTVYLQMTSLKPEDTEVYYCNRDTNVGVLNYKFYDGPERDYWGQGTQVTVSS | low polyreactivity
22 | QVQLVESGGGLVQAGGSLRLSCAASGRTYVSYAMGWYRQAPGKERELVATITGSTGGTYYADSVKGRFTISRDHAKNTVYLQMNSLKPEDTAVYYCNKDYYYNPGNVASGYDYWGQGTQVTVSS | low polyreactivity

Row | Sequence | polyreactivity (PSR sort gate)
23 | QVQLVESGGGLVQAGGSLRLSCAASGRTYWHNTMGWYRQAPGKERELVAAINGGGGSTYYADSVKGRFTISRDNAKNTVYLQMNSLKPEDTAVYYCSARQGVVKGGRGYGYWGQGTQVTVSS | high polyreactivity
24 | QVQLVESGGGLVQAGGSLRLSCAASGRTYYHYTMGWYRQAPGKERDLVAAITSGGSTYYADSVKGRFTMSRDNAKITVYVQMNSLKPEDTAVYYCARVRPLYHYSRYDYWGQGTQVTVSS | high polyreactivity
25 | QVQLVESGGGLVQAGGSLRLSCAASGRYFGYNAMGWYRQAPGKERELVAAITGSGGSTYYADSVKGRFTISLDNAKHTVYLQIISLKPEDTAVYYCAADRFYHSAEYDYWGQGTQVTVSS | low polyreactivity
26 | QVQLVESGGGLVQAGGSLRLSCAASGSALYAMGWYRQAPGKEMELVADISRRGGSTFYADSVKGRFTISRDKAKNTVYLQMNSLKPEDTAVYYCAAEFITYHGDDHYYWGQGTQVTVSS | low polyreactivity
27 | QVQLVESGGGLVQAGGSLRLSCAASGSFFHDYSMGWYRQAPGKERELVAAIRWSGGSTYYADSVKGRFTISRDNAKNTVYVQMNSLKPEDTAVYYCNAVTFGRDNVQLVKFGYWGQGTQVTVSS | low polyreactivity
28 | QVQLVESGGGLVQAGGSLRLSCAASGSIARNAMGWYRQAPGKERELVATISSGGGTYYADSVKGRFTISRDNAKNTVYLQMHSLKPEDTAVYYCAADGWEVPWPAIWDSLYEYWGQGTQVTVSS | high polyreactivity
29 | QVQLVESGGGLVQAGGSLRLSCAASGSICGRYAMGWYRQAPGKDRELVAAIRWRSGSTYYADSVKGRFTISRDNAKNSVYLHMNSLKPEDTAVYYCAVQRSYVGPRQYNYWGQGTQVTVSS | high polyreactivity
30 | QVQLVESGGGLVQAGGSLRLSCAASGSICWIYAMGWYRQAPGKERELVAAINVGGGSTYYADSVKGRFTISRDNAKNTVYLQMNSLKPEDTAVYYCAKGYQSPYKSQGYEYDYWGQGTQVTVSS | low polyreactivity
31 | QVQLVESGGGLVQAGGSLRLSCAASGSIDNIYAMGWYRQAPGKERELVATITGIADSTYYADSVKGRFTISRDNAKNTVFLQMNSLKPEDTAVYYCAADKYVAEYDYWGQGTQVTVSS | low polyreactivity
32 | QVQLVESGGGLVQAGGSLRLSCAASGSIFAAYAMGWYRQAPGKERELVAAISDRGGSTYYADSVKGRFTISRDNAKNTVYLQMNSLKPEDTAVYYCATSVYDVRGGPFYYWGQGTQVTVSS | high polyreactivity
33 | QVQLVESGGGLVQAGGSLRLSCAASGSIFADNAMGWYRQAPGKERELVAAITRGGSTYYADSVKGRFTISRDNAKNTVYLQMNSLKPEDTAVYYCAAGTTTYSVNEVPVREGYDYWGQGTQVTVSS | low polyreactivity
34 | QVQLVESGGGLVQAGGSLRLSCAASGSIFADYAMGWYRQAPGKERELVAAISYNGDSTYYADSVKGRFTISRDNAKNTVYLQMNSLKPEDTAVYYCNAAARRYTSVFYTSGYTFDYWGQGTQVTVSS | low polyreactivity
35 | QVQLVESGGGLVQAGGSLRLSCAASGSIFADYAMGWYRQAPGKERELVAAITGSGGRTYYADSVKGRFTISRDNAKNTVYLQMNSLKPEDTAVYYCAAEGTTWYYDMDYWGQGTQVTVSS | low polyreactivity
36 | QVQLVESGGGLVQAGGSLRLSCAASGSIFADYAMGWYRQAPGKERELVAVISRRGGTTYYADSVKGRFTISRDNAKNTVYLQMNSLKTEDTAVYYCAARRSFNEYDYWGQGSQVTVSS | high polyreactivity
37 | QVQLVESGGGLVQAGGSLRLSCAASGSIFADYTMGCYRQAPGKERELVAAITGGGGRTYYADSVKGRFTISRDNAKNTVYLQMNSLKPEDTAVYYCAADFHDDHTSFDYWGQGTQVTVSS | low polyreactivity
38 | QVQLVESGGGLVQAGGSLRLSCAASGSIFADYTMGWYRQAPGKERELVAAISSDDSTYYADSVKGRFTISRDNAKNTVYLQMNSLKPEDTAVYYCNADGSIGPEEYWGQGTQVTVSS | low polyreactivity
39 | QVQLVESGGGLVQAGGSLRLSCAASGSIFADYVMGWYRQAPGKERELVAAITRRGRTYYADSVKGRFTISRDNAKNTVYLQMNSLIPEDTAVYYCAKVASGKIDSWGQGTQVTVSS | low polyreactivity
40 | QVQLVESGGGLVQAGGSLRLSCAASGSIFAFYAMGWYRQAPGKERELVAVISVSDGSTYYADSVKGRFTISRDNAKNTVYLQMKSLKAEDTAVYYCAATPRGSYGYYYWGQGTQVTVSS | low polyreactivity
41 | QVQLVESGGGLVQAGGSLRLSCAASGSIFAGNAMGWYRQAPGRERELVAGITFGDDSTYYADSVKGRFTISRDNAKNTVYLQMNSLKPEDTAVYYCATDMHPYNYYFYHYWVDAAYDYWGQGTQVTVSS | low polyreactivity
42 | QVQLVESGGGLVQAGGSLRLSCAASGSIFAGNTMGWYRQAPGKERELVARMTRAGSTYYADSVKGRFTITRDNAKNTVYLQMNSLKPEDTAVYYCASGPTGSLYRYYYWGQGSQVTVSS | high polyreactivity
43 | QVQLVESGGGLVQAGGSLRLSCAASGSIFAGYAMGWYRQAPGKERELVATITSGGSTNYADSVKGRFTISRDNAKNTVYFHMNSLKPEVTAVYYCAADVEDSIPSSYTGGEYDYWGQCTQVTVSS | low polyreactivity
